B1: H4H18464P2 (antibody, human IgG4, V domains shown)
VH: QVQLVQSGPEVKKPGASVKVSCKGSGYTFSWYGISWIRQAPGHGLEWMGWISASSGNTRFAQKVQGRLTMTTDTSTSTAYMELRSLRSDDTAVYYCARTGTRPFDYWGQGTLVTVSS
VL: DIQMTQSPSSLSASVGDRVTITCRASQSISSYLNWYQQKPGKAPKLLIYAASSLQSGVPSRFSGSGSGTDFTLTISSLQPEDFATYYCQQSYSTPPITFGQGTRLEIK
notes: H4H prefix: human IgG4 Fc
B2: H4H18440P2 (antibody, human IgG4, V domains shown)
VH: QVQLVESGGGMVKPGGSLRLSCAASGFTFSDYYMSWIRQAPGKGLEWISHISITGSTIYYADSVKGRFTISRDNAKNSLYLEMNRLRDEDTAVYYCTRDEPDIVLVRYGMDVWGQGTTVTVSS
VL: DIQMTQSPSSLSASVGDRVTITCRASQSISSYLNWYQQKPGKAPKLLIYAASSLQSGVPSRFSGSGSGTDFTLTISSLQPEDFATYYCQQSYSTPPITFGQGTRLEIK
notes: H4H prefix: human IgG4 Fc
B3: H4H18457P2 (antibody, human IgG4, V domains shown)
VH: EVQLVESGGSVVRPGESLRLSCAASGFTFDDYGMSWVRQAPGKGLEWVSGISWNGGITVYADSVKGRFTVSRDNAKNSLYLQMNSLRAEDTALYHCARARYGGADYWGQGTLVTVSS
VL: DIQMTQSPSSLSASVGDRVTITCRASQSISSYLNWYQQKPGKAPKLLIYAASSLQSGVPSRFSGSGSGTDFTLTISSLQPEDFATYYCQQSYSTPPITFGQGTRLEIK
notes: H4H prefix: human IgG4 Fc
B4: H4H17322P2 (antibody, human IgG4, V domains shown)
VH: QLQLQESGPGLVKPSETLSLTCTVSGASISSSRFYGGWIRQPPGKGLEWIGDIYYSGNTYYNPSLQSRVTISVDTSKNQFSLKLSSVTAADTAVYYCARHLMITFGGLIVEGFDIWGQGTMVTVSS
VL: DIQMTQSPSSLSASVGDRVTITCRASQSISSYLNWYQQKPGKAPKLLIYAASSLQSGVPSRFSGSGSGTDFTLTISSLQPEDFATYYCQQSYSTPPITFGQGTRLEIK
notes: H4H prefix: human IgG4 Fc
B5: H4H18437P2 (antibody, human IgG4, V domains shown)
VH: QVQLVESGGGVVQPGRSLRLSCAASGFTFSSYGIHWVRQAPGKGLEWVAVISYDGNNKYYADSVKGRFTISRDNSKNTLYLQMNSLRAEDTAVYYCAKDLFLEWLFHGMGVWGQGTTVTVSS
VL: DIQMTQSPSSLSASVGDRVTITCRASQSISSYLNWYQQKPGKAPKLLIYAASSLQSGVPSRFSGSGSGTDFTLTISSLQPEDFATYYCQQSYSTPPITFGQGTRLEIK
notes: H4H prefix: human IgG4 Fc
B6: H4H18439P2 (antibody, human IgG4, V domains shown)
VH: QLQLQESGPGLVKPSETLSLTCIVSGGDITSSSYYWNWIRQPPGKGLEWIGNIYYSGSTNYNPSLKSRVTISIDTSKSQFSLKLRSVTAADTAVYYCARLLRYFDWSKGYLDYWGQGTLVTVSS
VL: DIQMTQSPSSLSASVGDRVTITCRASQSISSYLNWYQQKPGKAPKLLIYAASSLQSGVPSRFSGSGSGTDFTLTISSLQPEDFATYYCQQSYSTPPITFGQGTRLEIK
notes: H4H prefix: human IgG4 Fc
B7: H4H18462P2 (antibody, human IgG4, V domains shown)
VH: EVQLVESGGDLVQPGRSLRLSCAASGFTFSSFAMSWVRQAPGRGLEWVSSLSDSGDNTYYADSVKGRFTISRDNSKNTLYLQMNNLRAEDTAVYYCAKDLFSGWLFHGFDVWGQGTMVTVSS
VL: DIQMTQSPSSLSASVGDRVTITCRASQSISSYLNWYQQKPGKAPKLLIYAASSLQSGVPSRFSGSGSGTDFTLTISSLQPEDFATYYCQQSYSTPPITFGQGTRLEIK
notes: H4H prefix: human IgG4 Fc
B8: H4H18466P2 (antibody, human IgG4, V domains shown)
VH: EVQLVESGGGLVQPGGSLRLSCTASGFTFSSYGLHWVRQAPGKGLEYVSSINHNGGSKYYADSVKGRFTISRDNSKNTLFLQMGSLKTEDMAVYYCARDLFLEWLFHGFDIWGQGTMVTVSS
VL: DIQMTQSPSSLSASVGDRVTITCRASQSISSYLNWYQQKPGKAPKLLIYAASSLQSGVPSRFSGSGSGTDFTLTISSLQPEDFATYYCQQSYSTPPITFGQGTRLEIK
notes: H4H prefix: human IgG4 Fc

Columns and labels:
Assay in all cases: SPR, mAb captured, 37 C
[1] = target: T1, recombinant human LEPR extracellular domain expressed with a C-terminal myc-myc-hexahistidine tag (human, UniProt P48357 22-839)
T1 construct: Monomeric construct; also called hLEPR.MMH; hLEPR-MMH
Method: (§1) Equilibrium dissociation constants (KD values) for antigen binding to purified anti-LEPR monoclonal antibodies of the invention were determined using a real-time surface plasmon resonance biosensor using a Biacore 4000 instrument. All binding studies were performed in running buffer containing 10 mM HEPES, 150 mM NaCl, 3 mM EDTA, and 0.05% v/v Surfactant Tween-20, pH 7.4 (HBS-ET running buffer) at 25° C. and 37° C. The Biacore sensor surface was first derivatized by amine coupling with a monoclonal mouse anti-human Fc antibody (GE, # BR-1008-39) to the capture anti-LEPR monoclonal antibodies. The LEPR reagents tested for binding to the anti-LEPR monoclonal antibodies included recombinant human LEPR extracellular domain expressed with a C-terminal myc-myc-hexahistidine tag (hLEPR.MMH; SEQ ID NO:90), recombinant cynomolgus monkey LEPR extracellular domain expressed with a C-terminal myc-myc-hexahistidine tag (mfLEPR.MMH; SEQ ID NO:93), recombinant mouse LEPR extracellular domain expressed with a C-terminal myc-myc-hexahistidine tag (mLEPR.MMH; SEQ ID NO:94), recombinant rat LEPR extracellular domain expressed with a C-terminal myc-myc-hexahistidine tag (rLEPR.MMH; SEQ ID NO:95), and recombinant human LEPR extracellular domain expressed with a C-terminal mouse IgG2a Fc tag (hLEPR.mFc; SEQ ID NO:91). LEPR constructs that include MMH tags are monomeric LEPR constructs, and LEPR constructs including an mFc tag are dimeric LEPR constructs. […] The dissociation of monoclonal antibody bound LEPR reagent was monitored for 10 minutes in HBS-ET running buffer. Kinetic association (10 and dissociation (10 rate constants were determined by fitting the real-time binding sensorgrams to a 1:1 binding model with mass transport limitation using Scrubber 2.0c curve-fitting software. Binding dissociation equilibrium constants (KD) and dissociative half-lives (t½) were calculated from the kinetic rate constants as: […]

[2] = target: T2, recombinant human LEPR extracellular domain expressed with a C-terminal mouse IgG2a Fc tag (human)
T2 construct: Dimeric construct; also called hLEPR.mFc; hLEPR-mFc
T2 chain: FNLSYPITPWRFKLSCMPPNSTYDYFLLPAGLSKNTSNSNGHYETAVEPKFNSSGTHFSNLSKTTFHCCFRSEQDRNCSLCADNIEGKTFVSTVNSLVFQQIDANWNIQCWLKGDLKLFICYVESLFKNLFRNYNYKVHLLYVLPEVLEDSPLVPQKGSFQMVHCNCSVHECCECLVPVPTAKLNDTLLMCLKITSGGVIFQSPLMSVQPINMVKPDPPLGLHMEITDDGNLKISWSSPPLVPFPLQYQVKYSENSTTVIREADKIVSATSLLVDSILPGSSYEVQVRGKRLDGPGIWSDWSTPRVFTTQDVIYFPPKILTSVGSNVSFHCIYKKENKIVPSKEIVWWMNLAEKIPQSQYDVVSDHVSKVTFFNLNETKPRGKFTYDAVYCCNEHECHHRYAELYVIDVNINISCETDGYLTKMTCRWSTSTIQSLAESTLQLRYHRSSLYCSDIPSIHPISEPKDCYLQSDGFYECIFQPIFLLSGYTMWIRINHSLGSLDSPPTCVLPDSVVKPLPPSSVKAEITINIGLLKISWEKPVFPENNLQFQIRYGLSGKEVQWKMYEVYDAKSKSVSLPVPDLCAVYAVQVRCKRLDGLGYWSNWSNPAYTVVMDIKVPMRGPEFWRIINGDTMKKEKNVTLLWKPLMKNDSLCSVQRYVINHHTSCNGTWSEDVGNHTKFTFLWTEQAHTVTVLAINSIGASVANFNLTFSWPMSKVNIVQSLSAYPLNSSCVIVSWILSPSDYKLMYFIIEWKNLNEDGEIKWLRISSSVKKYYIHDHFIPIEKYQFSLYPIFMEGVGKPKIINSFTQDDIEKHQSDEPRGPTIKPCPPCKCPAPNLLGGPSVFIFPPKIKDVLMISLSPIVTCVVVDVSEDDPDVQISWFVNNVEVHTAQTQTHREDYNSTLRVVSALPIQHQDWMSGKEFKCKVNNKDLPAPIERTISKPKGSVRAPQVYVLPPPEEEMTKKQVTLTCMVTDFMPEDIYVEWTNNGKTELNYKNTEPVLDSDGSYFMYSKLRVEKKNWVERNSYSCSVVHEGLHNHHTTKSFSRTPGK
Method: as §1

[3] = target: T3, recombinant rat LEPR extracellular domain expressed with a C-terminal myc-myc-hexahistidine tag (rat, UniProt Q62959 22-839)
T3 construct: Monomeric construct; also called rLEPR.MMH; rLEPR-MMH
T3 sequence (Q62959 other isoform, or with tags, fused parts or gaps): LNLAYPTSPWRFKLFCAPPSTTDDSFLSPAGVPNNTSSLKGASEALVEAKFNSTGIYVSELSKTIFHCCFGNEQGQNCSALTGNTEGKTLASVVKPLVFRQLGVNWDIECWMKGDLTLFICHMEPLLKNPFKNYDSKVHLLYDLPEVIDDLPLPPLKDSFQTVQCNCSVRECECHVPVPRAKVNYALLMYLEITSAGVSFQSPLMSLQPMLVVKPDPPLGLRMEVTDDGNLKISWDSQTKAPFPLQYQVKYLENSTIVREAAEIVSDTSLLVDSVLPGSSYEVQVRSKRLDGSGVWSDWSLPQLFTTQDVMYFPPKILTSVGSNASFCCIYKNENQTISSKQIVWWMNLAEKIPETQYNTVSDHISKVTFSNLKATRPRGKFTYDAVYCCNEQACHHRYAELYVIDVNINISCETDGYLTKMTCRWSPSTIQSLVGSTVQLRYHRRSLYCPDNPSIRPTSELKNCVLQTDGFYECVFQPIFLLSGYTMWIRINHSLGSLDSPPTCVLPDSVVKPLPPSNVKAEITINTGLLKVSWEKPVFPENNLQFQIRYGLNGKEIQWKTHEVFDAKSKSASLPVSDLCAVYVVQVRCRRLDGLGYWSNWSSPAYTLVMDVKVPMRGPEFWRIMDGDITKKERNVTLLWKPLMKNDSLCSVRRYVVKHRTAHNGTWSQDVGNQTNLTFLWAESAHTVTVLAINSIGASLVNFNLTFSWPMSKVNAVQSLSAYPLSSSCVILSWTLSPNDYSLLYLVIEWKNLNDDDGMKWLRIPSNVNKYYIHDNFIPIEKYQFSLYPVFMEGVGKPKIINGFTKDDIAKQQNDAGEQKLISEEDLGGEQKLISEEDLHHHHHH
Method: as §1

[4] = target: T4, recombinant cynomolgus monkey LEPR extracellular domain expressed with a C-terminal myc-myc-hexahistidine tag (cynomolgus monkey, UniProt Q9MYL0 22-837 (rhesus entry))
T4 construct: Monomeric construct; also called mfLEPR.MMH; mfLEPR-MMH
Method: as §1

| Binder | 100 nM hLEPR-MMH Bound (RU) [1] | Kd [1] | koff [1] | kon [1] | t½ [1] | 100 nM hLEPR-mFc Bound (RU) [2] | Kd [2] | koff [2] | kon [2] | t½ [2] | 100 nM rLEPR-MMH Bound (RU) [3] | 100 nM mfLEPR-MMH Bound (RU) [4] | Kd [4] | koff [4] | kon [4] | t½ [4] | Kd [3] | koff [3] | kon [3] | t½ [3] |
| --- | --- | --- | --- | --- | --- | --- | --- | --- | --- | --- | --- | --- | --- | --- | --- | --- | --- | --- | --- | --- |
| B1 | 68 RU | 20.5 nM | 0.00315 s⁻¹ | 154000 M⁻¹ s⁻¹ | 3.7 min | 105 RU | 1.28 nM | 0.000517 s⁻¹ | 404000 M⁻¹ s⁻¹ | 22 min | 1 RU | 13 RU | 215 nM | 0.00841 s⁻¹ | 39200 M⁻¹ s⁻¹ | 1.4 min | – | – | – | – |
| B2 | 95 RU | 27.3 nM | 0.00173 s⁻¹ | 63400 M⁻¹ s⁻¹ | 7 min | 181 RU | 0.527 nM | 0.000112 s⁻¹ | 212000 M⁻¹ s⁻¹ | 103 min | 0 RU | 66 RU | 101 nM | 0.00724 s⁻¹ | 71500 M⁻¹ s⁻¹ | 1.6 min | – | – | – | – |
| B3 | 108 RU | 24.8 nM | 0.00855 s⁻¹ | 345000 M⁻¹ s⁻¹ | 1.4 min | 166 RU | 1.27 nM | 0.000704 s⁻¹ | 556000 M⁻¹ s⁻¹ | 16 min | 16 RU | 117 RU | 30 nM | 0.0104 s⁻¹ | 347000 M⁻¹ s⁻¹ | 1.1 min | 580 nM | 0.0175 s⁻¹ | 30200 M⁻¹ s⁻¹ | 0.7 min |
| B4 | 99 RU | 11.7 nM | 0.000812 s⁻¹ | 69500 M⁻¹ s⁻¹ | 14 min | 105 RU | 3.31 nM | 0.00044 s⁻¹ | 133000 M⁻¹ s⁻¹ | 26 min | 9 RU | 142 RU | 7.72 nM | 0.0011 s⁻¹ | 143000 M⁻¹ s⁻¹ | 10 min | 352 nM | 0.0328 s⁻¹ | 93200 M⁻¹ s⁻¹ | 0.4 min |
| B5 | 55 RU | 77.6 nM | 0.00884 s⁻¹ | 114000 M⁻¹ s⁻¹ | 1.3 min | 88 RU | 4.3 nM | 0.000556 s⁻¹ | 129000 M⁻¹ s⁻¹ | 21 min | 10 RU | 58 RU | 147 nM | 0.0127 s⁻¹ | 86900 M⁻¹ s⁻¹ | 0.9 min | 629 nM | 0.0193 s⁻¹ | 30700 M⁻¹ s⁻¹ | 0.6 min |
| B6 | 19 RU | 202 nM | 0.00469 s⁻¹ | 23200 M⁻¹ s⁻¹ | 2.5 min | 67 RU | 15.1 nM | 0.000923 s⁻¹ | 60900 M⁻¹ s⁻¹ | 13 min | 0 RU | 14 RU | 169 nM | 0.00792 s⁻¹ | 46900 M⁻¹ s⁻¹ | 1.5 min | – | – | – | – |
| B7 | 31 RU | 248 nM | 0.0114 s⁻¹ | 45800 M⁻¹ s⁻¹ | 1 min | 84 RU | 4.26 nM | 0.000543 s⁻¹ | 128000 M⁻¹ s⁻¹ | 21 min | – | 28 RU | 261 nM | 0.0337 s⁻¹ | 129000 M⁻¹ s⁻¹ | 0.3 min | – | – | – | – |
| B8 | 26 RU | 148 nM | 0.00674 s⁻¹ | 45500 M⁻¹ s⁻¹ | 1.7 min | 52 RU | 8.86 nM | 0.00052 s⁻¹ | 58700 M⁻¹ s⁻¹ | 22 min | 6 RU | 27 RU | 164 nM | 0.0138 s⁻¹ | 84300 M⁻¹ s⁻¹ | 0.8 min | 771 nM | 0.0252 s⁻¹ | 32600 M⁻¹ s⁻¹ | 0.5 min |

Reference: patent US20200123264A1 (Regeneron, published 2020)
